# Patent US8129336B1, “Inhibitor of the uracil-DNA glycosylase enzyme and uses thereof” (Consejo Superior de Investigaciones Cientificas, priority 2005, dated 2012)
# Entries after “also recorded” stand apart in the source; their conditions may differ.
# T1: UDG of B. subtilis (Bacillus subtilis, UniProt P39615)
# T1 construct: endogenous in cells; host or cells: B. subtilis 110NA [pPR53.p56FLAG] lysate; UDG is the cell's own protein; only p56FLAG is plasmid-encoded
# T1 sequence (P39615 whole entry, looked up): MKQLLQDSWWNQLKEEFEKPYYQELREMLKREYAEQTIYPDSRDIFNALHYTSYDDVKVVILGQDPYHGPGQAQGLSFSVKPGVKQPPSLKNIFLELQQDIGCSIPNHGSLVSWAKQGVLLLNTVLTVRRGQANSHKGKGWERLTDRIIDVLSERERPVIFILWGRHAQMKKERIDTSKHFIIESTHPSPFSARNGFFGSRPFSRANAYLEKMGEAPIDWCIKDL
# B1: UGI: UGI protein encoded by the PBS2 bacteriophage, known inhibitor of UDG (protein, UniProt P14739 1-84, looked up)
# Uracil-DNA glycosylase …: MTNLSDIIEKETGKQLVIQESILMLPEEVEEVIGNKPESDILVHTAYDESTDENVMLLTSDAPEYKPWALVIQDSNGENKIKML
# B2: p56FLAG: p56 protein that contains amino acid sequence DYKDDDDK (FLAG peptide) fused to the C-terminal end (protein)
# chain: MVQNDFVDSYDVTMLLQDDDGKQYYEYHKGLSLSDFEVLYGNTADEIIKLRLDKVLDYKDDDDK
# Experiments:
# human UNG2 enzyme = human UNG2 enzyme (Homo sapiens, UniProt P13051); conditions: cited from earlier work
# human UNG2 enzyme, sequence (P13051 whole entry): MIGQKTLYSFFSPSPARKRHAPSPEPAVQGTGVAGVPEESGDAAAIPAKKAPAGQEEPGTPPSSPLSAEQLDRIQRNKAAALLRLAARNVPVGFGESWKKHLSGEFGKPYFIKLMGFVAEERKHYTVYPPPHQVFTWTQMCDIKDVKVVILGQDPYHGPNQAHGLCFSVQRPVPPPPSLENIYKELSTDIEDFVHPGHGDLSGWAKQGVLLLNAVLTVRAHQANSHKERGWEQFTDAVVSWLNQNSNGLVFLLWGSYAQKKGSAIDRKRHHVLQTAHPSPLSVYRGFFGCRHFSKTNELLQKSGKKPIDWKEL
# UDG of B. subtilis = target: T1, UDG of B. subtilis; test: Affinity chromatography on anti-FLAG M2 column, co-elution with p56FLAG; assay type: binding; conditions: extract of B. subtilis 110NA[pPR53.p56FLAG]; elution with FLAG peptide; peptide mass fingerprinting
# Protocol: In order to analyse whether the UDG enzyme is a cellular target of protein p56, affinity chromatography assays were performed. Briefly, the B. subtilis 110NA [pPR53.p56FLAG] strain was grown in LB medium with phleomycin (0.8 μg/ml) at 30° C. to an OD560 equivalent to 10^8 viable cells per ml. The culture was concentrated 10-fold in TBS buffer (50 mM Tris-HCl, pH 7.5, 150 mM NaCl) and was lysed using the French press (20,000 psi). The lysate was centrifuged at 7,000 rpm and 4° C. in the Sorvall-SS.34 rotor for 10 minutes. The supernatant was loaded in an anti-FLAG M2 column (Sigma). The proteins bound to the column were eluted with the TBS buffer containing the FLAG peptide (500 μg/ml) (Sigma). The eluted proteins were precipitated with acetone, re-suspended in the loading buffer (60 mM Tris-HCl, pH 6.8, 2% SDS, 5% β-mercaptoethanol, 30% glycerol) and separated by electrophoresis in polyacrylamide/Tricine/SDS gels (Schagger and von Jagow (1987) Anal. Biochem. 166: 368-379). The gel was stained with SyproRuby (Molecular Probes). As a negative control, an extract from the 110NA[pPR53] strain was used. In a second experiment, protein p56 (2 μg) was incubated with the UDG enzyme of E. coli (0.2 μg, New England Biolabs). After 15 minutes at ambient temperature, the reaction was analysed by electrophoresis in native polyacrylamide gels (16%). The gel was stained with SpyroRuby.
Molecule,blocking of UDG activity of human UNG2 (human UNG2 enzyme),interaction / co-elution with UDG enzyme (UDG of B. subtilis)
B1,blocks the UDG activity of the human UNG2 enzyme,–
B2,–,protein D was identified to be the UDG enzyme; also recorded: interacts with the UDG enzyme
